Data from patent US20230312689A1 (NATIONAL UNIVERSITY CORPORATION KUMAMOTO UNIVERSITY, published 2023).

B1: CTMA9-105 (antibody, V domains shown)
VH: EVQLVESGGGLIQPGGSLRLSCAASGITVSSNYMSWVRQAPGKGLEWVSLIYSGGSTYYADSVKGRFTISRDNSKNTLYLQMNSLRAEDTAVYYCARDLEEAGGMDVWGQGTTVTVSS
VL: DIVMTQSPGTLSLSPGERATLSCRASQSVPSIYLAWYQQRPGQAPRLLIYGASSRATGIPDRFSGSGSGTDFTLTISRLEPEDFAVYYCQQYGSSPGTFGQGTKVEIK
B2: CSSA10-121 (antibody, V domains shown)
VH: EVQLVESGGGLIQPGGSLRLSCAASGLTVSRNYMSWVRQAPGRGLEWVSLIYSGGSTYYADSVKGRFTISRDSSKNTLYLQMNSLRAEDTAVYYCARPIVGARAGMDVWGQGTTVTVSS
VL: DIRMTQSPSSLSASVGDRVTITCQASQDISNYLNWYQQKPGKAPKLLIYDASNLETGVPSRFSGSGSGTDFTFTISSLQPEDIATYYCQQYDNLPVTFGQGTRLEIK

Key:
[1] = target: spike protein of SARS-CoV-2 mutant strain B.1.351 (SARS-CoV-2); test: cell-based or functional assay
[2] = target: SARS-CoV-2 spike protein, European type SD614G (SARS-CoV-2, UniProt P0DTC2 14-1273); test: cell-based or functional assay

Row | Binder | IC50, pseudovirus neutralization, 293FT/DSP/ACE2/TMPRSS2 cells [1] [µg/mL] | neutralizing activity (IC50 value), pseudovirus, 293F/ACE2/TMPRSS2 cells [2] [µg/mL] | neutralizing activity (IC50 value), pseudovirus, Caco-2 cells [2] [µg/mL] | neutralizing activity (IC50 value), pseudovirus, Calu-3 cells [2] [µg/mL]
1 | B1 | 0.021 | 0.0035 | 0.00092 | 0.0019
2 | B2 |  | 0.018 | 0.015 | 0.12
